From the supplement of paper PMC7877785
± gives the uncertainty stated by the source.

Test: self-splicing fitness, log relative to wild type (ln ratio); higher = more splicing; Tetrahymena group I intron in knt gene, E. coli kanamycin selection, DiMSum; sequences stand for … in CUCUCU…GGAGGGAAAAGUUAUCAGGCAUGCACCUGGUAGCUAGUCUUUAAACCAAUAGAUUGCAUCGGUUUAAAAGGCAAGACCGUCAAAUUGCGGGAAAGGGGUCAACAGCCGUUCAGUACCAAGUCUCAGGGGAAACUUUGAGAUGGCCUUGCAAAGGGUAUGGUAAUAAGCUGACGGACAUGGUCCUAACCACGCAGCCAAGUCCUAAGUCAACAGAUCUUCUGUUGAUAUGGAUGCAGUUCACAGACUAAAUGUCGGUCGGGGAAGAUGUAUUCUUCUCAUAAGAUAUAGUCGGACCUCUCCUUAAUGGGAGCUAGCGGAUGAAGUGAUGCAACACUGGAGCCGCUGGGAACUAAUUUGUAUGCGAAAGUAUAUUGAUUAGUUUUGGAGUACUCGUGGUCG
Method in brief: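 Pooled colonies went to amplicon sequencing on an Illumina HiSeq 2500 after six replicate transformations. The plates were LB agar with 100 μg/mL carbenicillin, 50 μM IPTG and 0.2% rhamnose, with or without 25 μg/mL kanamycin, incubated overnight at 37°C or 30°C. The E. coli BL21(DE3) library had all eight P1ex-region intron nucleotides randomised, the intron placed in the knt kanamycin-resistance gene on pET-22b(+). DiMSum fitness is the error-weighted combination of replicate fold changes, kanamycin against none, normalised to wild type.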

| Sequence | self-splicing fitness (ln) (30 °C) | self-splicing fitness (ln) (37 °C) |
| --- | --- | --- |
| UGACAGCAAUAUUACGAUAU | -2.67 ± 0.16 | -1.9 ± 0.14 |
| GCCGAGCAAUAUUACGUACG | -2.46 ± 0.43 | -1.56 ± 0.26 |
| GGACAGCAAUAUUACGAAAC | -0.691 ± 0.12 | -0.624 ± 0.2 |
| GAUAAGCAAUAUUACGCGGU | -3.19 ± 0.25 | -1.01 ± 0.19 |
| GAAGAGCAAUAUUACGCAAA | – | -2.69 ± 0.33 |
| ACCAAGCAAUAUUACGUCCA | -2.01 ± 0.096 | -1.3 ± 0.1 |
| GGGGAGCAAUAUUACGCGUU | -2.88 ± 0.13 | -1.04 ± 0.14 |
| CGGGAGCAAUAUUACGACUU | -1.58 ± 0.37 | -1.83 ± 0.49 |
| UUCCAGCAAUAUUACGUCAU | -3.65 ± 0.2 | -2.72 ± 0.2 |
| UUAAAGCAAUAUUACGCUCA | 0.0308 ± 0.097 | 0.489 ± 0.14 |
| GCUGAGCAAUAUUACGCAAA | -4.1 ± 0.39 | -1.55 ± 0.29 |
| CAUCAGCAAUAUUACGGGAG | -0.766 ± 0.054 | -0.2 ± 0.075 |
| GUUCAGCAAUAUUACGUAGU | -0.247 ± 0.11 | 0.369 ± 0.11 |
| UUCGAGCAAUAUUACGACAG | -2.81 ± 0.19 | -1.5 ± 0.13 |
| UUAAAGCAAUAUUACGGAUG | -0.473 ± 0.074 | -0.418 ± 0.1 |
| UUUGAGCAAUAUUACGGUUA | -2 ± 0.17 | -1.57 ± 0.15 |
| CACCAGCAAUAUUACGAGUU | -2.42 ± 0.075 | -1.65 ± 0.087 |
| AACCAGCAAUAUUACGUUCA | -0.752 ± 0.06 | -0.495 ± 0.065 |
| CCUAAGCAAUAUUACGACAC | -3.33 ± 0.44 | -2.03 ± 0.29 |
| GGACAGCAAUAUUACGUACA | -1.06 ± 0.096 | 0.0922 ± 0.12 |
| UUCGAGCAAUAUUACGCUAG | -2.82 ± 0.26 | -2.05 ± 0.42 |
| GAUUAGCAAUAUUACGAUUU | -0.392 ± 0.12 | 0.757 ± 0.13 |
| CACAAGCAAUAUUACGUGAC | -4.87 ± 0.34 | -2.77 ± 0.2 |
| CAAUAGCAAUAUUACGCAUA | -2.99 ± 0.18 | -2.08 ± 0.18 |
| CCAUAGCAAUAUUACGAGGA | -2.97 ± 0.25 | -2.05 ± 0.25 |
| CAUUAGCAAUAUUACGGGUG | -3.18 ± 0.16 | -1.57 ± 0.14 |

| Sequence | self-splicing fitness (ln) (30 °C) | self-splicing fitness (ln) (37 °C) |
| --- | --- | --- |
| UUCAAGCAAUAUUACGCGUG | -3.38 ± 0.17 | -2.13 ± 0.17 |
| CGCAAGCAAUAUUACGCCCG | -1.22 ± 0.21 | -1.93 ± 0.31 |
| AGAUAGCAAUAUUACGUCUG | -0.398 ± 0.062 | -0.143 ± 0.076 |
| AACAAGCAAUAUUACGUCGG | -2.99 ± 0.14 | -1.99 ± 0.15 |
| UGUAAGCAAUAUUACGCGAA | -2.68 ± 0.14 | -1.33 ± 0.17 |
| ACUGAGCAAUAUUACGUAAC | -4.25 ± 0.25 | -3.36 ± 0.3 |
| UCCUAGCAAUAUUACGUAGA | -2.36 ± 0.05 | -0.729 ± 0.069 |
| GCAAAGCAAUAUUACGUGAA | -0.989 ± 0.099 | -0.0746 ± 0.12 |
| GCCCAGCAAUAUUACGUACA | -2.17 ± 0.1 | -0.789 ± 0.096 |
| UCAAAGCAAUAUUACGGAGA | -3.38 ± 0.28 | -1.61 ± 0.17 |
| CUCUAGCAAUAUUACGACGA | -2.13 ± 0.22 | -0.928 ± 0.16 |
| AGAAAGCAAUAUUACGUCUA | -0.728 ± 0.091 | -0.00176 ± 0.092 |
| UAAAAGCAAUAUUACGUAAG | -1.01 ± 0.079 | -0.764 ± 0.11 |
| GAGGAGCAAUAUUACGGCCG | – | -1.55 ± 0.39 |
| GAACAGCAAUAUUACGAUCG | -0.614 ± 0.085 | -0.564 ± 0.11 |
| UCUCAGCAAUAUUACGCCGG | -2.33 ± 0.21 | – |
| AGUCAGCAAUAUUACGACGU | 0.702 ± 0.092 | -0.164 ± 0.096 |
| UGAUAGCAAUAUUACGGAAG | -1.99 ± 0.14 | -1.64 ± 0.21 |
| UCAGAGCAAUAUUACGUACG | -1.96 ± 0.24 | -1.96 ± 0.28 |
| UAGCAGCAAUAUUACGAACA | -0.591 ± 0.069 | 0.237 ± 0.081 |
| CUUUAGCAAUAUUACGACUG | -0.867 ± 0.094 | 0.418 ± 0.15 |
| GCCCAGCAAUAUUACGUCAU | -2.82 ± 0.1 | -1.29 ± 0.097 |
| CCCAAGCAAUAUUACGGCAG | -3.73 ± 0.17 | -1.65 ± 0.12 |
| UGACAGCAAUAUUACGGACG | 0.0374 ± 0.078 | 0.415 ± 0.11 |
| AGUAAGCAAUAUUACGGCUG | -0.953 ± 0.11 | -0.941 ± 0.12 |
| CAUCAGCAAUAUUACGUUAU | -3.34 ± 0.12 | -2.02 ± 0.11 |

| Sequence | self-splicing fitness (ln) (30 °C) | self-splicing fitness (ln) (37 °C) |
| --- | --- | --- |
| CCUUAGCAAUAUUACGAAUC | -2.65 ± 0.36 | -1.38 ± 0.34 |
| CGGCAGCAAUAUUACGAAUC | -4.16 ± 0.39 | -2.23 ± 0.34 |
| CUCCAGCAAUAUUACGGGGG | -3.56 ± 0.16 | -2.89 ± 0.19 |
| GGCGAGCAAUAUUACGACUC | -0.185 ± 0.14 | 0.173 ± 0.24 |
| CUAAAGCAAUAUUACGGUUA | -3.78 ± 0.33 | -2.72 ± 0.25 |
| GGUUAGCAAUAUUACGUCCU | -1.2 ± 0.12 | -0.367 ± 0.12 |
| AAUCAGCAAUAUUACGCGGA | -0.694 ± 0.076 | -0.555 ± 0.079 |
| GGGCAGCAAUAUUACGAACC | -0.749 ± 0.29 | -0.806 ± 0.31 |
| UUCGAGCAAUAUUACGAACG | -2.89 ± 0.29 | -0.783 ± 0.33 |
| CAGUAGCAAUAUUACGCGGU | -2.74 ± 0.12 | -2.94 ± 0.19 |
| CGGGAGCAAUAUUACGCGAA | -2.47 ± 0.25 | -1.9 ± 0.23 |
| AAACAGCAAUAUUACGCGCU | -1.03 ± 0.072 | -0.289 ± 0.087 |
| CCAUAGCAAUAUUACGUUAU | -3.34 ± 0.14 | -3.31 ± 0.21 |
| CCAAAGCAAUAUUACGAUCG | 0.0481 ± 0.058 | -0.183 ± 0.075 |
| AUGGAGCAAUAUUACGGAUU | -2.09 ± 0.13 | 0.177 ± 0.13 |
| AAGUAGCAAUAUUACGUAGA | -3.01 ± 0.18 | -1.45 ± 0.21 |
| GCGAAGCAAUAUUACGACAG | -3.79 ± 0.16 | -1.97 ± 0.21 |
| CGGCAGCAAUAUUACGUUUC | -3.29 ± 0.17 | -2.36 ± 0.19 |
| CGCGAGCAAUAUUACGGAGU | -4.33 ± 0.46 | -2.08 ± 0.21 |
| CACCAGCAAUAUUACGUGCA | -4.11 ± 0.17 | -2.56 ± 0.15 |
| UCCUAGCAAUAUUACGGGGG | -3.69 ± 0.18 | -2.59 ± 0.27 |
| UCCGAGCAAUAUUACGGGGG | -4.27 ± 0.33 | -2.47 ± 0.22 |
| UGGGAGCAAUAUUACGGCCG | – | -1.37 ± 0.28 |
| ACUAAGCAAUAUUACGGGCG | -0.856 ± 0.091 | -0.529 ± 0.1 |
